Legend:
[1] = biological target: Env of HIV-1 strain A03349M1 (pseudovirus) (HIV-1)
[2] = biological target: Env of HIV-1 strain 6405 (pseudovirus) (HIV-1)
[3] = biological target: Env of HIV-1 strain 3873 (pseudovirus) (HIV-1)
[4] = biological target: Env of HIV-1 strain CNE30 (pseudovirus) (HIV-1)
[5] = biological target: Env of HIV-1 strain 6471 (pseudovirus) (HIV-1)
[6] = biological target: Env of HIV-1 strain ZM135 (pseudovirus) (HIV-1)
[7] = biological target: Env of HIV-1 strain 6322 (pseudovirus) (HIV-1)
[8] = biological target: Env of HIV-1 strain 6631 (pseudovirus) (HIV-1)
monomeric gp120 = test: ELISA or SPR against neutralization
[9] = biological target: 1FD6 CAP45 scaffold N192D; test: ELISA, supernatant on His grab plates
[10] = biological target: 1FD6 CAP45 scaffold N147D; test: ELISA, supernatant on His grab plates
1FD6-CAP45 V1V2 scaffold = test: ELISA, supernatant on His grab plates
[11] = biological target: 1FD6 CAP45 scaffold N156D; test: ELISA, supernatant on His grab plates
[12] = biological target: 1FD6 CAP45 scaffold N143D; test: ELISA, supernatant on His grab plates
[13] = biological target: 1FD6 CAP45 scaffold N160Q; test: ELISA, supernatant on His grab plates
[14] = biological target: linked dimers of the gp120 V1/V2 domain; test: SPR

## monoclonal antibody PG16
ZM53.12
  neutralization IC50: < 0.023 µg/mL
[1]
  neutralization IC50: > 50 µg/mL
ZM249.1
  neutralization IC50: 0.073 µg/mL
[2]
  neutralization IC50: > 50 µg/mL
UG024.2
  neutralization IC50: > 50 µg/mL
UG021.16
  neutralization IC50: > 50 µg/mL
SVA.MLV
  neutralization IC50: > 50 µg/mL
ZM55.28a
  neutralization IC50: > 50 µg/mL
SIVmac251.30.SG3
  neutralization IC50: > 50 µg/mL
ZM197.7
  neutralization IC50: 0.65 µg/mL
3016.v5.c45
  neutralization IC50: > 50 µg/mL
ZM233.6
  neutralization IC50: < 0.023 µg/mL
3168.V4.C10 (HIV-1)
  neutralization IC80: 0.515 µg/mL
ZM197.7 (HIV-1)
  neutralization IC80: 6.67 µg/mL
ZA012.29 (HIV-1)
  neutralization IC80: > 50 µg/mL
96ZM651_02 (HIV-1)
  neutralization IC80: > 50 µg/mL
DU422.01 (HIV-1)
  neutralization IC80: 49.9 µg/mL
CNE7 (HIV-1)
  neutralization IC80: 1.91 µg/mL
TZBD.02 (HIV-1)
  neutralization IC80: 0.175 µg/mL
SO18.18 (HIV-1)
  neutralization IC80: 0.136 µg/mL
[3]
  neutralization IC80: > 50 µg/mL
ZM106.9 (HIV-1)
  neutralization IC80: > 50 µg/mL
CAP45.G3 (HIV-1)
  neutralization IC80: < 0.023 µg/mL
DU123.06 (HIV-1)
  neutralization IC80: 0.163 µg/mL
TV1.29 (HIV-1)
  neutralization IC80: 0.15 µg/mL
CNE58 (HIV-1)
  neutralization IC80: < 0.023 µg/mL
CH117.4 (HIV-1)
  neutralization IC80: 0.028 µg/mL
DU172.17 (HIV-1)
  neutralization IC80: 0.134 µg/mL
[4]
  neutralization IC80: > 50 µg/mL
ZM214.15 (HIV-1)
  neutralization IC80: > 50 µg/mL
CNE40 (HIV-1)
  neutralization IC80: > 50 µg/mL
CNE53 (HIV-1)
  neutralization IC80: > 50 µg/mL
[5]
  neutralization IC80: > 50 µg/mL
CAP210.E8 (HIV-1)
  neutralization IC80: 0.882 µg/mL
CNE15 (HIV-1)
  neutralization IC80: < 0.023 µg/mL
CNE31 (HIV-1)
  neutralization IC80: > 50 µg/mL
ZM146.7 (HIV-1)
  neutralization IC80: > 50 µg/mL
CH181.12 (HIV-1)
  neutralization IC80: 0.01 µg/mL
ZM215.8 (HIV-1)
  neutralization IC80: > 50 µg/mL
[6]
  neutralization IC80: > 50 µg/mL
6785.V5.C14 (HIV-1)
  neutralization IC80: < 0.023 µg/mL
ZM176.66 (HIV-1)
  neutralization IC80: 0.01 µg/mL
ZM109.4 (HIV-1)
  neutralization IC80: > 50 µg/mL
[7]
  neutralization IC80: > 50 µg/mL
BR025.9 (HIV-1)
  neutralization IC80: 0.049 µg/mL
DU156.12 (HIV-1)
  neutralization IC80: < 0.023 µg/mL
TZA125.17 (HIV-1)
  neutralization IC80: 0.719 µg/mL
0077_V1_C16 (HIV-1)
  neutralization IC80: 0.075 µg/mL
[8]
  neutralization IC80: > 50 µg/mL
MW965.26 (HIV-1)
  neutralization IC80: > 50 µg/mL
DU151.02 (HIV-1)
  neutralization IC80: < 0.023 µg/mL
6644.V2.C33 (HIV-1)
  neutralization IC80: > 50 µg/mL
CAP244.D3 (HIV-1)
  neutralization IC80: 0.058 µg/mL
3637.V5.C3 (HIV-1)
  neutralization IC80: > 50 µg/mL
Monomeric gp120
  fold weaker affinity for monomeric gp120 than for the viral spike: > 100 fold
[9]
  EC50: 27 µg/mL
[10]
  EC50: 0.7 µg/mL
1FD6-CAP45 V1V2 scaffold
  EC50: 9.1 µg/mL
[11]
  EC50: > 50 µg/mL
[12]
  EC50: 3.3 µg/mL
[13]
  EC50: > 50 µg/mL

## monoclonal antibody PG9
ZM53.12
  neutralization IC50: 0.041 µg/mL
[1]
  neutralization IC50: > 50 µg/mL
ZM249.1
  neutralization IC50: 0.033 µg/mL
[2]
  neutralization IC50: > 50 µg/mL
UG024.2
  neutralization IC50: 3.94 µg/mL
UG021.16
  neutralization IC50: > 50 µg/mL
SVA.MLV
  neutralization IC50: > 50 µg/mL
ZM55.28a
  neutralization IC50: 0.571 µg/mL
SIVmac251.30.SG3
  neutralization IC50: > 50 µg/mL
ZM197.7
  neutralization IC50: 0.414 µg/mL
3016.v5.c45
  neutralization IC50: 0.286 µg/mL
ZM233.6
  neutralization IC50: < 0.023 µg/mL
3168.V4.C10 (HIV-1)
  neutralization IC80: 0.657 µg/mL
ZM197.7 (HIV-1)
  neutralization IC80: 1.92 µg/mL
ZA012.29 (HIV-1)
  neutralization IC80: > 50 µg/mL
96ZM651_02 (HIV-1)
  neutralization IC80: > 50 µg/mL
DU422.01 (HIV-1)
  neutralization IC80: 15.8 µg/mL
CNE7 (HIV-1)
  neutralization IC80: 4.5 µg/mL
TZBD.02 (HIV-1)
  neutralization IC80: 1.3 µg/mL
SO18.18 (HIV-1)
  neutralization IC80: 0.227 µg/mL
[3]
  neutralization IC80: > 50 µg/mL
ZM106.9 (HIV-1)
  neutralization IC80: 6.58 µg/mL
CAP45.G3 (HIV-1)
  neutralization IC80: < 0.023 µg/mL
DU123.06 (HIV-1)
  neutralization IC80: 0.477 µg/mL
TV1.29 (HIV-1)
  neutralization IC80: 0.044 µg/mL
CNE58 (HIV-1)
  neutralization IC80: 0.068 µg/mL
CH117.4 (HIV-1)
  neutralization IC80: 0.03 µg/mL
DU172.17 (HIV-1)
  neutralization IC80: 0.899 µg/mL
[4]
  neutralization IC80: > 50 µg/mL
ZM214.15 (HIV-1)
  neutralization IC80: > 50 µg/mL
CNE40 (HIV-1)
  neutralization IC80: 20 µg/mL
CNE53 (HIV-1)
  neutralization IC80: 0.809 µg/mL
[5]
  neutralization IC80: > 50 µg/mL
CAP210.E8 (HIV-1)
  neutralization IC80: 0.501 µg/mL
CNE15 (HIV-1)
  neutralization IC80: < 0.023 µg/mL
CNE31 (HIV-1)
  neutralization IC80: > 50 µg/mL
ZM146.7 (HIV-1)
  neutralization IC80: 6.78 µg/mL
CH181.12 (HIV-1)
  neutralization IC80: 0.04 µg/mL
ZM215.8 (HIV-1)
  neutralization IC80: 0.228 µg/mL
[6]
  neutralization IC80: > 50 µg/mL
6785.V5.C14 (HIV-1)
  neutralization IC80: 0.094 µg/mL
ZM176.66 (HIV-1)
  neutralization IC80: 0.05 µg/mL
ZM109.4 (HIV-1)
  neutralization IC80: 2.64 µg/mL
[7]
  neutralization IC80: > 50 µg/mL
BR025.9 (HIV-1)
  neutralization IC80: 0.215 µg/mL
DU156.12 (HIV-1)
  neutralization IC80: 0.143 µg/mL
TZA125.17 (HIV-1)
  neutralization IC80: 1.21 µg/mL
0077_V1_C16 (HIV-1)
  neutralization IC80: 0.343 µg/mL
[8]
  neutralization IC80: > 50 µg/mL
MW965.26 (HIV-1)
  neutralization IC80: 49.9 µg/mL
DU151.02 (HIV-1)
  neutralization IC80: 0.057 µg/mL
6644.V2.C33 (HIV-1)
  neutralization IC80: 0.12 µg/mL
CAP244.D3 (HIV-1)
  neutralization IC80: 0.362 µg/mL
3637.V5.C3 (HIV-1)
  neutralization IC80: > 50 µg/mL
Monomeric gp120
  fold weaker affinity for monomeric gp120 than for the viral spike: > 10 fold
[9]
  EC50: 0.2 µg/mL
[10]
  EC50: 0.1 µg/mL
1FD6-CAP45 V1V2 scaffold
  EC50: 0.2 µg/mL
[11]
  EC50: 4.9 µg/mL
[12]
  EC50: 0.1 µg/mL
[13]
  EC50: > 50 µg/mL
[14]
  Kd: < 1000 nM

Reference: US20140348865A1, “[…] ON AN HIV-1 V1V2 SITE-OF-VULNERABILITY” (The United States of America, as represented by the …, priority 2011, published 2014)
